In paper PMC12405362 one finds Km and kcat data, which are given here for one protein.

A word on the Km: it is the substrate concentration at which the rate is half of its maximum. What is called kcat is the maximal rate divided by the concentration of active sites.

Substrate in the series: O=C(/C=C/c1ccc(O)c(O)c1)O[C@@H]1C[C@](O)(C(=O)O)C[C@@H](O)[C@H]1O
Kind of series: purified protein. The conditions noted are these: tri-buffer (0.1 M acetic acid, 0.1 M Tris, 20 mM MES) pH 6, 30°C, 15 min, hydrolysis.

B1: CiCQE3 (Cichorium intybus) (protein)
chain: CYPSIISFGDSLADTGNVKEMASKSNVHAPHFLFPPYGETFFNKPTGRCSNGRLIIDFVAESLGLPLIPPSLGSKTNVHVTGLGQGVNYAVAGATALDSSFHEERGVEIWTNASLGVQLGWFKDSLSSICSSVADCRQLIGQSLVLMGEIGGNDYNHALVAGKSIDEVETYVPFVINTIVSAVNELIELGAETLVIPGNLPIGCSAAYLTIFYGSSEVQYDNSTGCIITLNKLAEYHNEFLQKKLHQIRELHPDVNIIYADYYNAAMQFFRSPNKYGFTNGALKACCGGGGPFNYNPSIDCADPASTSCAQPDTYVNWDGLHLTEAAYRVIFKSIFEGSYTTPRFNALCPTSMLQGVGGFSSSI
Consider B1, for which the Km was 1740 µM and the turnover number (kcat) was 0.466 s⁻¹.
